Test results taken from the supplement of paper PMC6757056.
± gives the standard deviation of the averaged measurements.

B1: library; a variant is named by its letters at N, in order (parent)
chain: GCUGUCACCGGUGCUUGGUACGUUAUAUUCAGCCGGUCUGAUGAGUCUNNNNNNAGACGAAACAGC

What was measured:
(6R,S)-folinic acid [1] = variants of: B1; assay: FACS-Seq fitted mean relative fluorescence mCherry/BFP without ligand (log10 relative fluorescence); HEK293T overexpressing SLC46A1; higher = higher reporter protein expression; settings: without (6R,S)-folinic acid; ligand present: no
In short: (§1)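 Enriched HEK293T cells carrying, by lentivirus, an mCherry reporter with the ribozyme switch and an EF1α-BFP marker spent 48 h with or without ligand and were sorted into 6 bins by mCherry/BFP. MiSeq sequencing of PCR-amplified bin genomic DNA gave bin counts. Fluorescence was calculated as the fitted normal mean of those counts. Counts were binned on log10(mCherry/BFP), and means were scaled to five spiked-in control ribozymes.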

(6R,S)-folinic acid [2] = variants of: B1; assay: normalized RNA/DNA level without ligand (relative to sTRSVctl = 100) (log10 (% of sTRSVctl)); HEK293T overexpressing SLC46A1; higher = less ribozyme self-cleavage, higher mRNA level; settings: without (6R,S)-folinic acid; ligand present: no
In short: (§2)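 Only sequences with at least 100 DNA reads were analyzed, from HEK293T cells transfected with 4 µg per 6-well well of ribozyme switch library plasmids 72 h before RNA extraction with EDTA. Any ligand was added 1 h before transfection. RNA level was defined as RNA over DNA reads, normalized to a spiked-in non-cleaving sequence or to the top sequences, then scaled and log-transformed. The top set was 25 sequences, and the scaling was ×100 followed by log10.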

(6R,S)-folinic acid [3] = variants of: B1; assay: FACS-Seq fitted mean relative fluorescence mCherry/BFP with ligand (log10 relative fluorescence); HEK293T overexpressing SLC46A1; ligand concentration (+) FACS-Seq: 6 mM; higher = higher reporter protein expression; settings: with (6R,S)-folinic acid; ligand present: yes
In short: as §1

(6R,S)-folinic acid [4] = variants of: B1; assay: normalized RNA/DNA level with ligand (relative to sTRSVctl = 100) (log10 (% of sTRSVctl)); HEK293T overexpressing SLC46A1; ligand concentration (+) RNA-Seq: 6 mM; higher = less ribozyme self-cleavage, higher mRNA level; settings: with (6R,S)-folinic acid; ligand present: yes
In short: as §2

| Variant | FACS-Seq fitted mean (log10) ((6R,S)-folinic acid [1]) | normalized RNA/DNA level without ligand (log10) ((6R,S)-folinic acid [2]) | FACS-Seq fitted mean (log10) ((6R,S)-folinic acid [3]) | normalized RNA/DNA level with ligand (log10) ((6R,S)-folinic acid [4]) |
| --- | --- | --- | --- | --- |
| UUAGGG | 0.0949 ± 0.0093 | 1.776 ± 0.008 | 0.324 ± 0.11 | 2 ± 0.021 |
| UUAGGC | 0.366 ± 0.0042 | 1.974 ± 0.0042 | 0.465 ± 0.26 | 2 ± 0.058 |
| UUAGGA | 0.674 ± 0.033 | 1.879 ± 0.014 | 0.677 ± 0.022 | 2 ± 0.045 |
| GUACAC | 0.175 ± 0.17 | 1.984 ± 0.01 | 0.311 ± 0.16 | 2.029 ± 0.019 |
| GUACAG | 0.519 ± 0.15 | 1.938 ± 0.018 | 0.81 ± 0.0085 | 2 ± 0.024 |
| GUAUAG | 0.256 ± 0.031 | 1.94 ± 0.0061 | 0.546 ± 0.096 | 2.01 ± 0.048 |
| CUAAUA | 0.179 ± 0.11 | 1.974 ± 0.0043 | 0.335 ± 0.36 | 1.982 ± 0.007 |
| GGUUGA | 0.168 ± 0.043 | 2.083 ± 0.0081 | -0.309 ± 0.06 | 2.07 ± 0.031 |
| GGUUGC | 0.472 ± 0.12 | 1.932 ± 0.0076 | 0.388 ± 0.059 | 1.9808 ± 0.0018 |
| CGUCUC | 0.692 ± 0.063 | 2.06 ± 0.013 | 0.48 ± 0.48 | 1.996 ± 0.015 |
| GUAAUA | -0.154 ± 0.025 | 1.996 ± 0.006 | 0.161 ± 0.059 | 1.97 ± 0.039 |
| GUAAUC | 0.0594 ± 0.051 | 2.09 ± 0.023 | -0.00665 ± 0.0039 | 2.063 ± 0.0092 |
| GUAAUG | 0.394 ± 0.16 | 1.94 ± 0.023 | 0.532 ± 0.053 | 1.98 ± 0.038 |
| UUAUAG | 0.192 ± 0.026 | 1.8081 ± 0.0015 | 0.396 ± 0.16 | 1.99 ± 0.034 |
| UUAUAC | 0.677 ± 0.11 | 1.994 ± 0.012 | 0.593 ± 0.097 | 1.99 ± 0.036 |
| GUAACC | 0.499 ± 0.17 | 2.059 ± 0.0095 | 0.419 ± 0.081 | 2.053 ± 0.017 |
| GUAGAG | 0.201 ± 0.057 | 1.759 ± 0.015 | 0.87 ± 0.12 | 1.98 ± 0.035 |
| GUAGAU | 0.516 ± 0.029 | 1.9541 ± 0.0012 | 0.494 ± 0.37 | 1.98 ± 0.047 |
| GUAGAA | 0.384 ± 0.0046 | 1.954 ± 0.0058 | 0.522 ± 0.23 | 1.995 ± 0.0074 |
| UGUGUG | 0.164 ± 0.26 | 1.591 ± 0.003 | 0.393 ± 0.24 | 1.94 ± 0.062 |
| UGUGUA | 0.429 ± 0.1 | 1.895 ± 0.0065 | 0.399 ± 0.015 | 2.01 ± 0.021 |
| UGUUCC | 0.382 ± 0.066 | 2.05 ± 0.023 | 0.146 ± 0.006 | 2.05 ± 0.062 |
| UUAGAA | 0.323 ± 0.038 | 1.913 ± 0.0022 | 0.278 ± 0.054 | 1.98 ± 0.038 |
| UUAGAG | 0.029 ± 0.12 | 1.7074 ± 0.0017 | 0.476 ± 0.11 | 1.95 ± 0.045 |

| Variant | FACS-Seq fitted mean (log10) ((6R,S)-folinic acid [1]) | normalized RNA/DNA level without ligand (log10) ((6R,S)-folinic acid [2]) | FACS-Seq fitted mean (log10) ((6R,S)-folinic acid [3]) | normalized RNA/DNA level with ligand (log10) ((6R,S)-folinic acid [4]) |
| --- | --- | --- | --- | --- |
| AUAACU | -0.545 ± 0.34 | 2.009 ± 0.007 | -0.619 ± 0.76 | 2.02 ± 0.038 |
| AUAACC | -0.122 ± 0.045 | 2.011 ± 0.015 | -0.194 ± 0.26 | 2 ± 0.034 |
| AUAACA | 0.394 ± 0.16 | 2 ± 0.017 | 0.263 ± 0.35 | 1.98 ± 0.033 |
| UUCAAG | 0.372 ± 0.12 | 1.85 ± 0.014 | 0.562 ± 0.035 | 2.01 ± 0.034 |
| UUCAAU | 0.465 ± 0.017 | 2.004 ± 0.013 | 0.748 ± 0.3 | 1.98 ± 0.052 |
| UUCAAA | 0.198 ± 0.18 | 1.972 ± 0.0074 | 0.0558 ± 0.029 | 2.009 ± 0.019 |
| AUAAUA | 0.469 ± 0.017 | 1.982 ± 0.0023 | 0.369 ± 0.62 | 1.992 ± 0.015 |
| GGUUAU | 0.612 ± 0.021 | 1.989 ± 0.019 | 0.481 ± 0.077 | 1.98 ± 0.023 |
| GGUUAG | 0.215 ± 0.017 | 1.982 ± 0.016 | 0.245 ± 0.13 | 2 ± 0.035 |
| UUAUUG | 0.469 ± 0.069 | 1.82 ± 0.035 | 0.551 ± 0.16 | 1.97 ± 0.038 |
| UUAUUU | 0.415 ± 0.024 | 1.982 ± 0.0056 | 0.569 ± 0.26 | 2 ± 0.022 |
| GUAGGG | 0.666 ± 0.045 | 1.881 ± 0.0094 | 0.643 ± 0.24 | 1.99 ± 0.024 |
| GUAGCU | 0.643 ± 0.11 | 2.009 ± 0.01 | 0.287 ± 0.14 | 1.998 ± 0.0026 |
| GUCAAG | 0.249 ± 0.027 | 1.974 ± 0.0083 | 0.168 ± 0.075 | 2.03 ± 0.045 |
| AUACUC | 0.248 ± 0.028 | 2.049 ± 0.0056 | 0.188 ± 0.18 | 2.03 ± 0.037 |
| UGUCUG | 0.171 ± 0.096 | 1.73 ± 0.02 | 0.451 ± 0.14 | 1.96 ± 0.047 |
| CGUUGC | 0.557 ± 0.049 | 2.02 ± 0.025 | 0.358 ± 0.33 | 2.02 ± 0.047 |
| CUAUAG | 0.0808 ± 0.1 | 1.915 ± 0.017 | 0.35 ± 0.15 | 2 ± 0.029 |
| AUAAGC | 0.38 ± 0.1 | 2.003 ± 0.0058 | 0.792 ± 0.04 | 2.02 ± 0.042 |
| AUAAGU | 0.346 ± 0.17 | 1.88 ± 0.024 | 0.682 ± 0.15 | 2.01 ± 0.044 |
| AUAAGG | 0.0495 ± 0.016 | 1.882 ± 0.011 | 0.356 ± 0.25 | 1.99 ± 0.012 |
| AUACGG | 0.263 ± 0.033 | 1.919 ± 0.0086 | 0.367 ± 0.16 | 1.98 ± 0.02 |
| GGUGGA | 0.534 ± 0.074 | 2.054 ± 0.01 | 0.58 ± 0.079 | 2.06 ± 0.062 |
| UUAUGA | 0.0124 ± 0.043 | 1.9284 ± 0.0007 | -0.0229 ± 0.25 | 2.01 ± 0.027 |

| Variant | FACS-Seq fitted mean (log10) ((6R,S)-folinic acid [1]) | normalized RNA/DNA level without ligand (log10) ((6R,S)-folinic acid [2]) | FACS-Seq fitted mean (log10) ((6R,S)-folinic acid [3]) | normalized RNA/DNA level with ligand (log10) ((6R,S)-folinic acid [4]) |
| --- | --- | --- | --- | --- |
| UUAUGU | 0.389 ± 0.12 | 1.919 ± 0.0091 | 0.413 ± 0.13 | 1.987 ± 0.019 |
| AUACAG | 0.453 ± 0.1 | 1.9374 ± 0.0012 | 0.394 ± 0.44 | 2 ± 0.028 |
| AUACAU | 0.534 ± 0.18 | 1.96 ± 0.022 | 0.452 ± 0.056 | 2.017 ± 0.02 |
| AUACAA | 0.428 ± 0.07 | 1.974 ± 0.0047 | 0.215 ± 0.014 | 1.99 ± 0.035 |
| AUCACA | 0.256 ± 0.074 | 2.004 ± 0.0041 | 0.0653 ± 0.038 | 2.02 ± 0.032 |
| CUCAAU | 0.0874 ± 0.13 | 1.97 ± 0.036 | 0.0541 ± 0.42 | 1.971 ± 0.011 |
| GGUGAU | 0.294 ± 0.15 | 2.015 ± 0.013 | 0.491 ± 0.23 | 2.028 ± 0.018 |
| GGUGAC | 0.359 ± 0.087 | 2.027 ± 0.008 | 0.217 ± 0.074 | 2.01 ± 0.037 |
| GUACGA | 0.269 ± 0.031 | 2.0027 ± 0.0013 | 0.139 ± 0.31 | 2.04 ± 0.051 |
| GUACGG | 0.245 ± 0.024 | 1.953 ± 0.0076 | 0.584 ± 0.19 | 2.03 ± 0.032 |
| AGUUCA | 0.161 ± 0.15 | 2.005 ± 0.006 | -0.01 ± 0.41 | 2.008 ± 0.012 |
| CGUUAA | 0.362 ± 0.031 | 1.97 ± 0.016 | 0.486 ± 0.18 | 1.98 ± 0.025 |
| CUAUUU | 0.149 ± 0.064 | 1.984 ± 0.0088 | -0.0506 ± 0.019 | 1.984 ± 0.016 |
| CUAUUG | 0.309 ± 0.21 | 2.023 ± 0.011 | 0.316 ± 0.2 | 2.01 ± 0.0053 |
| CUAAAA | 0.151 ± 0.029 | 1.98 ± 0.021 | 0.19 ± 0.12 | 1.98 ± 0.048 |
| CUAAAG | -0.0676 ± 0.063 | 1.913 ± 0.0067 | -0.0285 ± 0.2 | 2 ± 0.035 |
| AUAGCG | 0.172 ± 0.0027 | 1.664 ± 0.015 | 0.461 ± 0.046 | 1.96 ± 0.045 |
| AUAGCA | 0.356 ± 0.058 | 1.9776 ± 0.00078 | 0.516 ± 0.016 | 2.03 ± 0.028 |
| AUAGCC | 0.385 ± 0.019 | 2.036 ± 0.0053 | 0.591 ± 0.43 | 2.03 ± 0.051 |
| AGUUGU | 0.3648 ± 0.0018 | 1.962 ± 0.012 | 0.521 ± 0.35 | 2.04 ± 0.028 |
| AGUUGA | 0.17 ± 0.13 | 1.964 ± 0.015 | 0.105 ± 0.028 | 2.018 ± 0.016 |
| AGUUGC | 0.455 ± 0.088 | 2.001 ± 0.0034 | 0.705 ± 0.23 | 2.03 ± 0.016 |
| GUAGUG | 0.359 ± 0.012 | 1.856 ± 0.0051 | 0.637 ± 0.19 | 1.99 ± 0.054 |
